B1: HDV Ribozyme (parent)
chain: GGCCGGCAUGGUCCCAGCCUCCUCGCUGGCGCCGGCUGGGCAACAUUCCGAGGGGACCGUCCCCUCGGUAAUGGCGAAUGGGACCCA

Among the data in the RNAGym collection of RNA variant scans (doi:10.7554/elife.80360) are self-cleavage values, retold here.

The variants in the series derive from B1. Briefly: self-cleavage, relative activity (ratio to wild type); higher = more cleavage; co-transcriptional.
For G67A A71U, the self-cleavage is 0.725.
The value for G67U C84A was 0.746; that for G67U C84G was 0.609.
In the case of G68A G82C it was 0.153; in that of G68A G74U, 0.612.
In the case of G68A G74C it was 0.314; in that of U69G G74C, 0.383.
Take U69G A77C: the self-cleavage is 0.369.
In the case of G68U G82A it was 0.153; in that of G68U G82U, 0.265.
Take G67C G82C: the self-cleavage turned out to be 0.289.
Consider G67C G82U, for which the self-cleavage came out at 0.185.
On to G67C G82A, for which the self-cleavage amounted to 0.108.
The value for G67C U79C was 0.305.
The value for G67C U79G was 0.435; that for G67C U79A was 0.935.
The value for A70C A78C was 0.208; that for G67A C85G was 1.1; that for G67A C85A was 0.844.
G67A C85U: the self-cleavage was 1.03.
The value for C66G A78U was 0.48.
In the case of C66G A78C, the self-cleavage came to 0.148.
In the case of C66G A78G it was 0.875; in that of G68C A83G, 0.356.
Take G67A U79C: the self-cleavage worked out at 0.509.
Take G67A U79A: the self-cleavage is 0.982.
As for C66U G80C, the self-cleavage was found to be 0.153.
The value for C66U G80A was 0.475; that for G67A G80C was 0.172.
With G67A G80A, the self-cleavage was 0.41.
For G68C C85G, the self-cleavage came to 0.733.
In the case of U69C G81C it was 0.231; in that of G68U U69G, 0.773; in that of G68U U69A, 0.912.
In the case of G68A G80C it was 0.286.
The value for G68A G80A was 0.367; that for G68A G80U was 0.251.
Consider G67A G68U, for which the self-cleavage was determined as 0.79.
Consider G67A G68A, for which the self-cleavage is 0.946.
In the case of G68U A78U it was 0.237; in that of G68U A78G, 0.639; in that of G67A A77C, 0.325.
The value for U69C A71G was 0.974; that for G68A U72G was 0.312.
The value for G68A U72C was 0.594.
Turning to G68A U69A, the self-cleavage is 1.
In the case of G68U A87G it was 0.908; in that of G68U A87U, 1.
The value for C66G U72G was 0.266.
C66G U72C: the self-cleavage came to 0.453.
As for C66G U72A, the self-cleavage stood at 0.587.
Turning to G68A A70C, the self-cleavage came out at 0.707.
On to G68A A70U, for which the self-cleavage worked out at 1.12.
With G68A A70G, the self-cleavage stood at 1.07.
In the case of U69A A77U it was 0.591; in that of C66U G74C, 0.363; in that of G67U A71C, 0.892.
For the variant G67U A71G, the self-cleavage stood at 1.12.
In the case of U69G C75U it was 0.0615; in that of C66G U69A, 0.917.
In the case of C66G U69G it was 1.18; in that of G67A G73A, 0.492.
In the case of C66G G67C, the self-cleavage was determined as 1.01.
The value for C66G G67U was 0.831; that for G67A G82A was 0.285; that for G67A G82U was 0.348.
For C66U A77G, the self-cleavage was determined as 0.489.
The value for G68C A77U was 0.755.
In the case of G68C A77G it was 0.554; in that of G68U G76A, 0.953; in that of U69G C84U, 0.554.
The value for U69G C84A was 0.779; that for G67A C75A was 0.185.
G67A C75U: the self-cleavage came to 0.189.
The value for C66G A70C was 0.758; that for C66G A70U was 1.08; that for C66G A70G was 0.831.
With G67A C86A, the self-cleavage was found to be 0.985.
In the case of G67A C86G it was 0.895; in that of G67A C86U, 0.845.
In the case of U69C A83U it was 0.431; in that of U69C A83G, 0.755; in that of U69A G82U, 0.491.
For G67A A70U, the self-cleavage was determined as 0.776.
In the case of G67A A70C it was 0.475; in that of C66U A71C, 0.54; in that of G68A C86A, 0.822.
The value for G68A C86U was 0.965; that for C66G A77U was 0.597.
Consider G67A U72G, for which the self-cleavage was found to be 0.383.
In the case of G68A C75U it was 0.0615; in that of C66U C86A, 0.905; in that of U69C A77U, 0.598.
In the case of U69C A77C it was 0.612; in that of C66U G82C, 0.268.
As for C66U G82A, the self-cleavage was found to be 0.649.
The value for G68U A71C was 0.973.
For G68U A71U, the self-cleavage turned out to be 1.01.
In the case of G68U A71G it was 1.04.
The value for G68C C75A was 0.0346; that for G68C C75G was 0.128.
In the case of G67A G76U it was 0.965; in that of G67A G76C, 0.926.
For the variant G67U C85U, the self-cleavage was found to be 0.972.
Take G67C A78C: the self-cleavage is 0.0639.
G67C A78G: the self-cleavage was 0.492.
In the case of G68A G81A it was 0.389; in that of G68A G81C, 0.175; in that of G68A A77C, 0.155.
In the case of G68A A77U, the self-cleavage is 0.394.
Regarding G68A A77G, the self-cleavage came out at 0.743.
In the case of C66G G76C it was 0.73.
For C66G G76U, the self-cleavage came to 0.88.
The value for U69C G80U was 0.0898; that for C66A U69G was 0.755; that for C66A U69A was 1.16.
In the case of C66A U69C it was 1.1; in that of G68U U72A, 0.277.
The value for G68U U72G was 0.359; that for G68A A83U was 0.424; that for C66G U79A was 0.808.
Regarding G68A A71U, the self-cleavage is 0.867.
In the case of G68A A71G it was 0.904; in that of G67A A83G, 0.39.
The value for G67C C86G was 0.933; that for G68A C85A was 0.831.
Consider G67U G68C, for which the self-cleavage was determined as 0.962.
The value for G67U G68U was 0.76; that for G67U G68A was 0.972; that for U69A C84U was 0.639.
The value for U69A C84A was 0.935; that for C66G G82A was 0.369.
In the case of C66U G76C it was 0.965; in that of C66U G76U, 0.936; in that of C66U G76A, 0.86.
Regarding G67U U79A, the self-cleavage turned out to be 0.601.
As to G67U U79G, the self-cleavage was determined as 0.516.
In the case of G67U U79C it was 0.231; in that of C66U C75A, 0.176.
In the case of C66U C75G it was 0.141; in that of C66U C75U, 0.173.
The value for U69A G81C was 0.325; that for U69G U79A was 0.935.
As for U69A A78C, the self-cleavage was determined as 0.208.
The value for U69A A78U was 0.222; that for G67A U69C was 0.927.
For the variant G67A U69A, the self-cleavage is 1.
The value for G67A U69G was 0.776; that for U69G G80A was 0.233.
In the case of U69G G80U, the self-cleavage was 0.31.
In the case of G68U U79C it was 0.415; in that of G67A A87G, 0.936.
The value for G67U G80C was 0.128; that for G67U G80A was 0.355.
The value for U69A C86G was 1.09; that for U69A C86A was 1; that for U69A C86U was 0.739.
As for U69A A70U, the self-cleavage worked out at 0.95.
In the case of G67U G76C it was 1.1.
On to G67U G76U, for which the self-cleavage is 1.08.
In the case of G67U G76A it was 1.18; in that of C66U G67U, 0.972.
The value for U69G G82A was 0.453.
As for C66G G80U, the self-cleavage is 0.116.
The value for C66G G80C was 0.0959.
The value for G67U C75G was 0.185; that for C66U C85A was 1.
